Here are results for three substances from US20240301362A1.

For this assay, the target named is CD46 (UniProt P15529). Put plainly: Kd determination, method not stated (column head 'Kd (Oleks)').
Chain of UniProt P15529 (P15529 35-343): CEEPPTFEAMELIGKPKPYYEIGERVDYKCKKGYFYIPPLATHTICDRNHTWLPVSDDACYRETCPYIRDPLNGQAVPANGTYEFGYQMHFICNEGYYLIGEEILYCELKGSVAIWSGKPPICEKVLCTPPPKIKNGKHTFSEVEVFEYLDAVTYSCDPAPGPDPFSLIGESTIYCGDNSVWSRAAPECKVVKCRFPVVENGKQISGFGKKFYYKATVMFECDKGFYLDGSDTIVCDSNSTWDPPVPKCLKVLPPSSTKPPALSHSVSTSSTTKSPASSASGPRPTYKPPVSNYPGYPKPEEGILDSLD

One may read the Kd as the constant that tells how readily two partners part at equilibrium. Lower therefore signals higher affinity. Substance “Mutated Ad35 Knob A8: Ile192Val Ile256Val (from UniProt Q92854)” showed a Kd of 13.7 nM. For wtAd35(207Asp) knob the value was 15 nM; for Ad11 knob (from UniProt P35774 123-325), 11.2 nM.
